These results are taken from patent US5635384 (DowElanco, dated 1997).

For this assay, the target named is T1, maize αβ RIP β fragment (maize).
T1 chain: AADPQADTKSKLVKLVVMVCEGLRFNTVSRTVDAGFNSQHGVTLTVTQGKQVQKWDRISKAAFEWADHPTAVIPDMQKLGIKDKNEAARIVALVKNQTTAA
Nature of the assay: reverse phase and ion exchange chromatography.

B1: maize αβ RIP α fragment (other)
chain: KRIVPKFTEIFPVEDANYPYSAFIASVRKDVIKHCTDHKGIFQPVLPPEKKVPELWFYTELKTRTSSITLAIRMDNLYLVGFRTPGGVWWEFGKDGDTHLLGDNPRWLGFGGRYQDLIGNKGLETVTMGRAEMTRAVNDLAKKKK
As to B1, the binding result is recorded as “binds”.
